Measurements published in a protein production outcome set (Wang et al. 2014).

Assay: label from the status in PepcDB records

Sequence | protein production
EREEEPAVQGNPDESLTVEGALEYVELAPQLNLPQQEEDADFHTVAGLIMEELQTIPDVGDFADFHGWRFEVVEKEGQRIERVKITKLP | not failed
MRAFFNSSMREKLSQLKARQQKQEMPANLSIIHALRATQEGFEDDGVMRNYDLLESQFKENLTKEDRELLESPKPNLEKLQELKIRLLEKNGIFKPPKQKSQISLVFGMNALVPLGTIKTL | failed
MSALVSMNGNNGSTATSARIAAKKPISILVLGVDQGLEGRNDKGNSDTIILVTVNPTTKKATMTSIPRDTLTEILGETSNTSYYMFKVNSAYQFGGSSGSIKTVSAMLNVPINYYVEVNMKALESLVNALGGVDVNVPFSFSYDWCDFKKGKQHLDGRYAIAYARMRYDDPRGDYGRQLRQRQIIQAVVKKGLSVNGLANYQKLLKVFAKYVKTNLTFGDMTSLAINYRSAASNISSGYIQGHDATISGTSLQIASTEELQKWSNKLRKSLGLSPQTLTNQETRQNSLNETYNGVDFSSNETITNYTIYEANSITPRSSDSWLEHHHHHH | not failed
MKSNDLVDQIMAQVIAKVSEHAPASSAQPSHAQPSYKQRDTAMAEKTCSLTEFVGTAIGDTVGLVIANVDSALLDAMKLEKRYRSIGILGARTGAGPHIMAADEAVKATNTEVVSIELPRDTKGGAGHGSLIIFGGDDVSDVKRAVEVALKELDRTFGDVYANEAGHIELQYSARASHALEKAFGTPLGRSCGVIVGAPASIGVLMADTAVKSANVDVVAYSSPAQGTSFSNEVILVISGDSGAVRQAVISAREIGKTVLATLGAEPKNDRPSYI | failed
MYAPERQQEILRLARDGGRVDVVSLAEEFQVTAETIRRDLKALDRAGLLRRVHGGAIPAGRLDFEPDLAERESTAADEKDRIARAALAELPAEGTLILDAGSTVARMAAAIPPDASLTVVTHSLPIAARLADHPGIQLHIVGGRVRHRTRAAVDAWALRAYGEIRADVAVVAANGFSVEHGLTTPDLAEAAVKRAALTAARRVVLLADSSKYAQEHFARFGALGDVDLLITDQGLTPEDAGDIERAGTEVVRA | failed
MQQFHIRRLREEDIPLLKGLLVELDTSHYEAEPNFYRSPEEMAQLREERGVFDKYFDDSMIAFIACSHRQVVGFISGTVRDIDSMVSVAKRVGFVNELVVSESHRNLGIGLSLMDKIESDLCNQGIEEIGLTVASFNHEGEDFYHKMGYRVMTKMMSKRVKDLEHHHHHH | not failed
MPQWRVRMHSGGLELALVLMLAAIVAVPVFKRFGLGAVLAYLVAGVVLGPDGAGVVQDAERISGAAEIGVVMLLFVIGLELSPARLKVMRHSVFGAGATQVLVTAVILGGLLMAAQLGWKSALIVGVALALSSTAVGLQLLAERKALSSDYGRLAFAILLFQDLIAIPLLAAIPLLGGSKNATLQWQDVAKAVAALALVIVCGRFVLRHLFNVVARTRMPEVFTASALLVVLGTAWIMQEAGLSASLGAFIAGVLLADSEFRHELESQIEPFEGLLLGLFFISVGMGIDLHRVVAEPWLIAAGVAILLVVKFSLLVGIGSVAKLPLRSSLMLGSVLWLGGEFAFVVFNEADRVGLLEPANHDRLVAIVGVSMALTPLLLLGMQRILNGPLRARAPKTDRPFDTIDAQTPKVLVAGMGRFGQVVARLLTARHVPFVALEHNPDTVEDLRRFGSQLYYGDPTRPELLRAAGAERIKVFVIAVDDPETNIKTVRLIRRLYPQATVLARARNRQHAWKLMDLGAEPFREVFASSLELSERVLTSLGLGEALAHDHVKRFRQHDEDLLRRQHLVYDDEAKVIQTSRDARADLMNLFEADVRADVDGEPAPTLRER | failed
MAVRKLGVLTSGGDCPGLNAVIRAIARHAVGNYGWELWGIAYATQGLLKRQAIALSPHHFDRQSLDPLLCSGGTILGSINRGDTLAHQAEILAGYQELGLDALIGIGGDGSLAILRQLAEAGRWQFIGIPKTIDNDVALTERAIGFDTAIHTVAEALLSLGSTAASHDRIMIAEVMGRQSGHLALQGGIAGGADVILLPEIPYRLLELCHYLQQLRDRWQRRYAVIAIAEGTHHPPEVTQGPGSLGEQLVQAITAQDPTLDARVTVLGHVQRGGNPVASDRLLATQMGYAAVERLAAGASGEMMAWQGGRVVSVPLEAVCLQSPTLVDPHSPLVDTAAGLGIFLGDRSLTPWRGSACPTH | failed
MDELELRIRKAEKLVQDAKKEFEMGLYERCCSTAYYAMFHAAKAMLLGYGRDSKTHRGTIYLIWECREELGLSDDDCSKLSRAFDLREESDYGIYKEVSKDLAIKILKDAEIFVQKAKNAVNKNR | not failed
MSAMGAGPDHLFNLRNNFYLGAYQTAINNSEIANLSPENAVERDCLVFRSYIALGSYQLVISEIDESAATPLQAVKLLAMYLSTPQNKESTISSLKEWLADSTIGNNDTLRLIAGIIFMHEEDYNETLKHTHAGGTMDLYALNVQIFIKMHRAEYAEKQLRVMQQIDEDHTLTQLASAWLNLAVGGSKIQEAYLIFEDFSEKYPMTCLILNGKAVCCMQMGNFDEAETLLLEALNKDAKDPETLANLVVCSLHVGKSSSRHLSQLKLSHPEHILVKRVSSAEDNFERAVQLVA | failed
MEKIIVVKYRDVKLKSPILIGGLPGIGNVGKIAADYIVEKLNMVKIYDIFSEYLPPQVFINDDSEIHLVRNSIYYKKMRGKHDLLVLGGDFQGTTQEAQYELSYKMLELAKDMNVSEVYTLGGYSVGKIVERPRVLGAVTDKKLIPELEKNGVIFPKGEPGGGIVGSAGLILGLGMEIFKINGACLMGETSGYFADPKSAMEVLNVLQKQIGIKIDMSDIETRSKQIEQITGKMQEEFQNKQGKEDLGYFG | failed
MPSLCKLNPCIQTHKEVIMDNLITQLLFSASITGPICVMLLLGVLLKRIHLINDNFIEVASKLVFQVTLPAMLFLSIVNAKHDFSSSSHLIIYGLIANFVFFLFTIYSTRFAFKNKQNHGVIIQGGFRANTAIIALAYVANAYGNTGVALAAIYVASTTILYNIQAVIALTPKNENNKKQAVGIIIKTLTKNPLIISIVLGIICSLLSIPVPGMLSQAGQYFANMTLPLALLCAGGSLNLHSMKEESAATWFATSYKLILSPLFITSGGILVGFRGLELGLIFFMSAAPTAAASYVMARAMGGNAILAANIIAQTTVASLFTCTLGIFVLSSFNLI | failed
DPAVLLDRAGRVIHLNAAAAQLAPALRVRELAQFALRSPEIVTALREAIATSEPRRVTYLDHGSIERWLELIIAPVQVPTAFGGTDQCMLMTFHDLTPLRRVEEMRADFVANASHELRTPLAALSGFIDTLQGQAR | failed
MSLIDLYDLRMPQRTGTYVLHEENLAIIETGPSPSVPHLLAGLKALHIDPADIRYIIVTHIHLDHAGGVGVLLEHCPNATVIVHPKGKRHLADPSRLIAGAKAVYGEQFDALFDPIVPVPEERLLVKEDGETLVLSAERTLTFYDTPGHANHHFSIYDSYSGGVFTGDTIGVFYPQLQEAGLAFCLPSTSPNQFNPEAMKQSAERLEKLNPTRIYFGHFGALDQPEEAFRQLRFWLPKFVAAGKEVIARHPEAPAAEQAKAVTKLLHNDITAFLNECSIPASSPVYKVIELDLQVCAMGIIDYWRKQRLEHHHHHH | failed
MAVTSPNMPASIRWGGIVALIQSTIGFGYAFFLIYREATGETDPSIVYETDNANTWVGYGTAAFFIIVFGTVVAGAINMMKGHRWGRGAVVMLNIILLPAAYYMFIEGRFSWAIVTGISALFVLGALFNKRAVLWANNEI | failed
MRGLSSLLLMIVLALLLYPLPHGVILIGIMTLSLLSHTLGIISLGILALYLIVFRITNIVGVAIMALGLLVVEIREMEKIRAPMEHFLYLIVAVGLSLLTYFGVYAISLAGVSLDVTLLAVLFLLLLYAFIRISVLSP | failed
MGLSRVRAVFFDLDNTLIDTAGASRRGMLEVIKLLQSKYHYKEEAEIICDKVQVKLSKECFHPYSTCITDVRTSHWEEAIQETKGGADNRKLAEECYFLWKSTRLQHMILADDVKAMLTELRKEVRLLLLTNGDRQTQREKIEACACQSYFDAIVIGGEQKEEKPAPSIFYHCCDLLGVQPGDCVMVGDTLETDIQGGLNAGLKATVWINKSGRVPLTSSPMPHYMVSSVLELPALLQSIDCKVSMSV | not failed
MYLEKINSPEDVKKLSIDEMKDLSTEIREVLLKKLSEHGGHIGPNLGIVELTIALHYVFNSPKDKIVYDVSHQSYIHKMLTGRKEAFINSEKYDEVSGYSNPEESEHDFFNIGHTSTSISLACGLAKARDVKDETDNVIAIIGDGSLSGGEAYEGLNNAAETGTNMIIIVNDNDMSIAENHGGLYKNLKELRDTEGKSECNFFKAMGLDYHYVKDGHDLEQLIGVFNKVKDTKQPVVVHIHTVKGKGFKFAEKNKEQWHWGMPFVLETGASKVSMGSAENYGNLTGEYLLDYMKRDPKVVAITSGTPAVFGFWKERRNEAGRQFVDVGIAEEHAVALASGIAANGGNPVYGVYSTFLQRTYDQLSQDLCINNNPAVLLVFAASVYGMNDVTHLGLYDIGMMSNIPNMVYLAPTCKEEYFAMLKWAMIQKDHPVAIRVPAMGVIESGVVDNTDYSKLNKYEVTKAGKDVAVIALGDFYQLGQSVTEKLSQENGINATLINPKYITGIDEELLEGLKKEHKLVITLEDGILDGGFGEKIARYYGASDMKVLNYGIKKELLDRYVPDELMKKNRLTDVQIVEDIMNIIK | failed
MSGEPDGERVIAGRYRLLSPLGEGGMGTVWRARDEVLRREVAVKEVRAPAGLSQPDVGRMYARLEREAWAAARISHPNVVTVYDVATDGGRPWIVMELVRGLSLADLLDAEGPLEPRRAALIGAEVLAALRAAHAAGVLHRDVKPANVLLANDGRVVLTDFGIARVEGSEALTMTGEVVGSPEFLAPERALGRTPGAASDLWSLGVLLYATVEGVSPFRQGTPLSTLRAIVDEAVPPPRRAGALGPVVEGLLRKDPAERLPAEEAERALRLVGAGGAPPGRGPRTGAPPSGAFAPTVVAAHPGPPTAPTPPMPVPAAGDTSAAGAPGAPGGRDRRARAVLLVGLAVLVLALAGLTYSLLDRSDGGGGTEGSGGSPGPGATSAATSGGAGEPSPPASSGTDGGQSGPAAQSVEVTVVGSRTHYSGACPPPHDRAPAFTATFTVGRLPAEVGYRWVTADGSVSDPGWRTLSFPSGGERSRQDGVVVTTHDDTGAFESAVRVEVRSPVRATSDAVAFSVTCGTGTETETGTGTPSGGASHSSSPSAPSSSPSA | failed
MNPFTYSKPTDITAAVNLSGPATRFIAGGTNLLDLMKENVATPEHLIDITGLPLREVSETASGGLMIGALVSNADLAYHPLIEARYPLLSKAVLAGASPQLRNMASTGGNLLQRTRCYYFYDTGVPCNKREPGSGCPAREGLNRIHAILGASDECVATHPSDMCVALAALEAVVHVEGRAGRRTIEFADFHRLPGDAPQRDNQLADDELIIAVELPAQGFASHNAYLKIRDRASYAFALISVAAAIDLDGDVVRDVRLALGGVAHKPWRDKAVEALLIGKPVTREHFAAAADAMLEDAKPLEHNGFKVRLARRAIIRALSDAATGGSAL | not failed
MGWVRTKALTMEQPSAPSLTRWLFAGVLMAIIGVLLFILHASGTVKIISVINIWWVSLMPAGCWLLIFCLRCYLWDRDLKAHQFLLKEAEYGQQRWEDWAGRWLAVLSSAVLLPDHISAAHWGSERPQQYGLARRINYLPVEEPVQLSAMHALLTSIEERVQCLPEELPLYVTLITDNPSPELTSSFSNLWKEHIPGRAVPDDITVTGSFSLSEVEERLKQPVLTVNLLLVIQLNGGTAYSDGLAVLLLTSDDVAQKYHLPHSSRLLRPMPLDMTNFEDDITLFLETQTVACQTPSVIGDAKKWTERSAALITQGGKMHTPWKAEDIALLEKWCGIPGPAAPWLLTALAADLVSLRKQPLLALFSSEQEHFISTITPGSEDDYTG | failed
MSKKIRNTEVDHLFDAILTLENKEECYTFFEDVCTVNELLSISQRYEVAKMLREGKTYLDISNATGASTATISRVNRSLNYGNDGYDMVLERVLKKDE | not failed
MKYQNFIMRILCLLLILAAVVGYNSMQKKDTQAQESQEITALTKRVEKLEEQNTEILSALEEAAKNQEAAIAQAQRDAKDKDDAAKEDAEGADAADTEESDDSENVYKDGTYTGSAQGFGGAITVQVTLANDEITDIQVTSAPGEDSAYLSQGEGVISSIISAQSTDVDTVSGATFSSTGIINAVVDALGKAEN | failed
